Values of other authors, collected in PMC11394293.

Target: s-Klotho KL1/KL2 (Homo sapiens) (UniProt Q9UEF7)
Chain of UniProt Q9UEF7 (Q9UEF7 34-981): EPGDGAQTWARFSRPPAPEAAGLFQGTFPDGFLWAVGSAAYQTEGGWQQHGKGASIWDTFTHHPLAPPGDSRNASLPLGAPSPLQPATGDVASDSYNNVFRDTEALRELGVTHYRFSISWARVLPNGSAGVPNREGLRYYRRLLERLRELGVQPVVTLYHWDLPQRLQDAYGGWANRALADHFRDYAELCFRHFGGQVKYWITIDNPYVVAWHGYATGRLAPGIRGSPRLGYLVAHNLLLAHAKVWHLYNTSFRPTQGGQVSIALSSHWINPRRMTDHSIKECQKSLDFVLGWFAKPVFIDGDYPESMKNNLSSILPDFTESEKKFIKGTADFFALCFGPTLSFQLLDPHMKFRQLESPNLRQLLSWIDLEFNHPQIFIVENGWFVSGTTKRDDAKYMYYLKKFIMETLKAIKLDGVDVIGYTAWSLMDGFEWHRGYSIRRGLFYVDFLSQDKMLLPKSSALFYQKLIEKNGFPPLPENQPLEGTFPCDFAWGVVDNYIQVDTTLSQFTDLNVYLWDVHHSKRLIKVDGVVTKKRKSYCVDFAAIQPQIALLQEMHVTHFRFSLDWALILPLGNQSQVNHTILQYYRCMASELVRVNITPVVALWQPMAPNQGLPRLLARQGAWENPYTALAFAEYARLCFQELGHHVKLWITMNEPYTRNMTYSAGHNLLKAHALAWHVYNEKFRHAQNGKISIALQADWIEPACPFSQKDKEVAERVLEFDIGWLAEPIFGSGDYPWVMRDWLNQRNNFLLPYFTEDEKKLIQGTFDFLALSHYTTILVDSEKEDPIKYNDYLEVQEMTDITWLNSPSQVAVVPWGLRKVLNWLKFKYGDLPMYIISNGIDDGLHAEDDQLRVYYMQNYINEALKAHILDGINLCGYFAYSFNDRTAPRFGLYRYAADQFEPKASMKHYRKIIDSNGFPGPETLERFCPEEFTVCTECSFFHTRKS

Q: Which Kd does the source give for FGF23 (from UniProt Q9GZV9) here?
A: 14 nM
